The data set concerns the target rhAChE (recombinant human acetylcholinesterase) (Homo sapiens, UniProt P22303 32-614). Kind of data set: indirect ELISA. For orientation: ELISA stands for enzyme-linked immunosorbent assay.

From paper PMC8938253 come the findings set out here.

Broadly, the Kd is a measure of binding affinity in units of concentration.

rhAChE (recombinant human acetylcholinesterase), sequence (P22303 32-614): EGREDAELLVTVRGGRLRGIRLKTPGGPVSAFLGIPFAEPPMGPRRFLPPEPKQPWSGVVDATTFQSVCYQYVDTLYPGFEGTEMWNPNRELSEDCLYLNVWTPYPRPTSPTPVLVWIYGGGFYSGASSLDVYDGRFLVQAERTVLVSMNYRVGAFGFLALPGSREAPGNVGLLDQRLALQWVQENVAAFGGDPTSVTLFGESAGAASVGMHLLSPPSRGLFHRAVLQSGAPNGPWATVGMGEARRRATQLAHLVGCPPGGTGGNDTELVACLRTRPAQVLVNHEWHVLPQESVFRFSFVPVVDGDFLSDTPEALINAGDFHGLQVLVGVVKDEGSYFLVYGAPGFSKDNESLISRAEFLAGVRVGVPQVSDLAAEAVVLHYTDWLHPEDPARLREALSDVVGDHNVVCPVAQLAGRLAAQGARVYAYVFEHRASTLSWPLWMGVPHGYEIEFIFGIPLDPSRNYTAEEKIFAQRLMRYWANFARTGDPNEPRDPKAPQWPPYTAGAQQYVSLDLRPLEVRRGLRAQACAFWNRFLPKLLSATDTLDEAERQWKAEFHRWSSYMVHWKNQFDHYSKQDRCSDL

B1: Ob2 (ssDNA)
DNA: TAATACGACTCACTATAGCAATGGTACGGTACTTCCCTTCGAAAACACCCTGCCCCTCACACAAAAGTGCACGCTACTTTGCTAA
B1: the dissociation constant (Kd) is 0.0171 ± 0.00986 µM.
